The values that follow come from paper PMC12148038, “Enhancement of CEP215 dynamics for spindle pole assembly during mitosis” (Journal of Cell Science, 2025).

Data set [1] deals with MBP–CEP215^1661-1893 (human) (UniProt Q96SN8). Nature of the data set: ITC; 25 µM MBP–CEP215 1661-1893 in the cell, titrated with 250 µM PCNT fragment, 29 injections, 25°C, MicroCal PEAQ-ITC. (In ITC the heat of successive injections is recorded.)
A further data set deals with T1, MBP–CEP215^1814-1877 (human, UniProt Q96SN8 1814-1877).
T1 construct: CEP215 (CDK5RAP2), human, residues 1814-1877; source: E. coli Rosetta (DE3) (pET Duet-1 vector), purified (amylose column, SEC)
T1 sequence (looked up): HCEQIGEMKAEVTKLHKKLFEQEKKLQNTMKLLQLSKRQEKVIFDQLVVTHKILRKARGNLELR
Nature of the data set: SEC; mixture of the two purified proteins, size exclusion chromatography followed by SDS-PAGE of the fractions. Conditions: both partners purified. A general note: In gel filtration, larger molecules generally elute earlier.

Data set [2] deals with the molecule itself. The experiment in a line: SEC-MALS; each purified protein at 1 to 5 mg/ml on Superdex 200 Increase 5/150 GL with MALS-UV-RI detectors.

What is called Kd is the concentration at which binding is half-saturated. As for “PCNT fragment used in the ITC experiment (from UniProt O95613 2350-2450) (domain or fragment)”, the Kd in data set [1] was 164 nM.

B1: MBP–PCNT^2388-2420 (domain or fragment, human, UniProt O95613 2388-2420, looked up)
chain: RPKHVKALLQMVRDESHQILALSEGLAPPSGEP
notes: PCNT (pericentrin), human, residues 2388-2420; source: E. coli Rosetta (DE3) (pET Duet-1 vector), purified (amylose column, SEC)
As for B1, the binding result with MBP–CEP215^1814-1877 is on record as “binds”.

B2: PCNT^2350-2450 (domain or fragment, human, UniProt O95613 2350-2450, looked up)
chain: RLSPGSGGPEAQTAGPVTPASISGRFQPLPEAMKEKEVRPKHVKALLQMVRDESHQILALSEGLAPPSGEPHPPRKEDEIQDISLHGGKTQEVPTACPDWR
notes: PCNT (pericentrin), human, residues 2350-2450; Homodimer by SEC-MALS; calculated monomer mass 11.3 kDa, which fits a fragment without MBP; source: bacterially expressed, purified (amylose column, TEV cleavage, anion exchange, SEC)
The stoichiometry N is a count of units in the complex or per binding partner. Take B2: the “stoichiometry N” value in data set [2] is 2.

B3: MBP–CEP215^1661-1893 (domain or fragment, human, UniProt Q96SN8 1661-1893, looked up)
chain: MESDNSFDLFDSSQAVTPKSVSETPPLSGNDTDSLSCDSGSSATSTPCVSRLVTGHHLWASKNGRHVLGLIEDYEALLKQISQGQRLLAEMDIQTQEAPSSTSQELGTKGPHPAPLSKFVSSVSTAKLTLEEAYRRLKLLWRVSLPEDGQCPLHCEQIGEMKAEVTKLHKKLFEQEKKLQNTMKLLQLSKRQEKVIFDQLVVTHKILRKARGNLELRPGGAHPGTCSPSRPGS
notes: Homodimer by SEC-MALS; calculated monomer mass with MBP 71.8 kDa; also called CEP215 fragment; source: bacterially expressed (pPROEX vector), purified (amylose column, SEC)
As for B3, the “stoichiometry N” value in data set [2] amounted to 2.
